The data set deals with PDGF-BB (platelet-derived growth factor BB) (Homo sapiens) (UniProt P01127). Description: filter.
[1] abbreviates: all Z are BndU, rest DNA, SB18T, 37 C.
The mark [2] stands for this setting: all P are NapdU, rest DNA, SB18T, 37 C.

Some results are limits rather than exact numbers.

Results on 77 substances are retold here after patent US20160177307.

Broadly, the Kd is the free concentration of one partner at which half of the binding sites on the other are occupied at equilibrium, for simple one-to-one binding.

PDGF-BB (platelet-derived growth factor BB) (Homo sapiens), sequence (P01127 82-190): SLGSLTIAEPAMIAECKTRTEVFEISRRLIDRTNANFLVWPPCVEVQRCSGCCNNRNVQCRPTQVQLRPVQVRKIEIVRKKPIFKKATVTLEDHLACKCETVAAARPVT

In the case of CGACAGCATGTATGCACATCT [5169-4_105], the Kd (NapdU at P, 2'-OMe 6,18,20) is 0.0061 nM. Where the note is “Bn-dU”, “ACTACGTTACACGCGTTTATAGCGTCAACCCGAGTGAACA [4149-8_15]” gave a Kd of more than 10 nM.

As for TTACGTTACCGCGTTTATAGCG [4149-8_432], the Kd (as 4149-8_379, PS 9,15,17) stood at 0.029 nM.

As for “TTACGACTACGTTACACGCGTTTAAGCG [4149-8_88]”, the Kd (Bn-dU, C3 at 25) was more than 10 nM. For the substance “CTTACGACTACGTTACACGCGTTTATAGCGT [4149-8_29]”, the Kd under setting [1] is 0.07 nM. In turn, “CTGCCTCGACAGCATGTATGCACATCTAGAGGCTACCCAGTGAA [5169-4_8]” registered a Kd (NapdU at P) of 0.036 nM. In turn, TTACGTTACCGCGTTTATAGCG [4149-8_454] registered a Kd (BndU at 1,2,8,17,20, NapdU at 16, Heg 5, C3 11, 2'-OMe at 3,7,12,18,19,21,24, PS 3' of 9,15,16,17, 3'-idT) of 0.0013 nM. CGACAGCATGTATGCACATCT [5169-4_39] came in with a Kd (NapdU at P, 2'-OMe 2) of 0.058 nM. The substance CTTACGACTACGTTACACGCGTTTA [4149-8_35] gave a Kd (Bn-dU) of more than 10 nM.

On to TTACGTTACACGCGTTTATAGCGNT [4149-8_339], for which, for the setting “4149-8_260 3'-3' dimer, C3, doubler”, the Kd came to 0.0062 nM. The substance CGACAGCATGTATGCACATCT [5169-4_153] displayed a Kd (as 5169-4_146, PS 8, 3' inverted dT) of 0.013 nM. Regarding “ATCTCTTACGACTACGTTACACGCGTTTATAGCGTC [4149-8_10]”, under setting [1], the Kd was 0.05 nM. Under “NapdU at P, 2'-OMe 1,5,20”, CGACAGCATGTATGCACATCT [5169-4_125] had a Kd of 1 nM. Substance “TTACGACTACGTTACACCGTTTATAGCG [4149-8_81]” registered a Kd (Bn-dU, C3 at 18) of more than 10 nM. Substance CGACAGCATGTATGCACATCT [5169-4_82] registered a Kd (NapdU at 9,11,13,19, 2'-OMe at G6,C7,G14,A16,A18,C20 and 2'-OMe-NapU21, SB18T, 37 C) of 0.0016 nM. CGACAGCATGTATGCCATCT [5169-4_74] registered a Kd (NapdU at P, C3 spacer at 16) of 0.37 nM.

For CGACAGCATGTATGCACATCT [5169-4_43], the Kd (NapdU at P, 2'-OMe 3) was determined as 0.16 nM. CGACAGCATGTATGCACATCT [5169-4_35]: where the note is “NapdU at P, 2'-OMe 7”, the Kd came out at 0.016 nM.

Regarding GACAGCATGTATGCACATCTAGA [5169-4_27], the Kd (NapdU at P) was 0.062 nM.

As for E10030 (Fovista), for the setting “comparator”, the Kd was 0.047 nM. Under setting [2], “CAGCATGTATGCACATCTAGAGGCTACCCAGTGAATGAGGA [5169-4_6]” gave a Kd of 67 nM. In turn, “CTTACGACTACGTTACACGCGTTTATAG [4149-8_32]” gave a Kd under setting [1] of 6 nM.

TTACGTTACACGCGTTTATAGCG [4149-8_305]: the Kd (Bn-dU, 2'-OMe Bn-U1, Heg5, 2'-OMe A3, A11, A21, G24) is more than 10 nM.

The substance “TTACGACTACGTTACACGCTTTATAGCG [4149-8_83]” returned a Kd (Bn-dU, C3 at 20) of more than 10 nM.

The substance CGACAGCATGTATGCACATCT [5169-4_113] came in with a Kd (NapdU at P, 2'-OMe 7,16,21) of 0.012 nM. Under “NapdU at P, 2'-OMe 7,14,16”, CGACAGCATGTATGCACATCT [5169-4_111] registered a Kd of 0.0048 nM. Turning to CGACAGCATGTATGCACATCT [5169-4_46], for the setting “NapdU at P, 2'-OMe 12”, the Kd worked out at 0.093 nM.

On to TTACGTTACCGCGTTTATAGCG [4149-8_379], for which the Kd (BndU at 1,8,16,17,20, MBndU at 2, Heg at 5, C3 at 11, 2'-OMe at A3,C12,A19,A21,G24 and 2'-OMe-BnU at 7,18, Table 30 gives 1.6E-11, Table 31 5.2E-11) was found to be 0.02 nM.

For CGACAGCATGTATGCACATCT [5169-4_151], under “as 5169-4_146 plus PS 3' of A3, 3'-idT”, the Kd is 0.006 nM. “GACAGCATGTATGCACATCTAGAGGCTACCCAGTGAA [5169-4_13]” gave a Kd (NapdU at P) of 0.027 nM. With TTACGTTACCGCGTTTATAGCG [4149-8_426], the Kd (as 4149-8_379 plus 2'-OMe A9,G13 or G15 as printed in SEQ:409) worked out at 42 nM.

For CGACAGCATGTATGCACATCT [5169-4_45], where the note is “2'-OMe A8, NapdU at 9,11,13,19,21, 2'-OMe substitution”, the Kd was found to be 0.93 nM. CGACAGCATGTATGCACATCT [5169-4_116]: the Kd (NapdU at P, 2'-OMe 4,17,21) was found to be 0.093 nM. For the setting “NapdU at P”, CGACAGCATGTATGCACATCTAG [5169-4_24] returned a Kd of 0.021 nM. Substance CGACAGCATGTATGCACATCT [5169-4_173] had a dissociation constant (Kd) (as 5169-4_146, PS 4, 3' inverted dT) of 0.0091 nM. For the setting “Bn-dU, 2'-OMe U7, Ib-dU8, Heg5, 2'-OMe A3, A11, A21, G24”, TTACGTTACACGCGTTTATAGCG [4149-8_258] gave a Kd of more than 10 nM. As for CGACAGCATGTATGCACATCT [5169-4_150], under “as 5169-4_146, PS 2, 3' inverted dT”, the Kd stood at 0.013 nM. Regarding CGACAGCATGTATGCACATCT [5169-4_154], the Kd (as 5169-4_146 plus PS 3' of P9, 3'-idT, 1.8-fold weaker than parent) was determined as 0.026 nM.

TTACGTTACCGCGTTTATAGCG [4149-8_418]: the Kd (as 4149-8_379, 2'-OMe 15) came out at 0.21 nM. For “CCTCGACAGCATGTATGCACATCTAGAGGCTACCCAGTGAATGAGGA [5169-4_4]”, the Kd (NapdU at P, SB18T, 37 C) came out at 0.027 nM. “ATCTCTTACGACTACGTTACACGCGTTTATAGCGTCAACCCGAGTGAACA [4149-8_2]” yielded a Kd (all Z are BndU (5-(N-benzylcarboxamide)-2'-deoxyuridine), rest DNA, SB18T, 37 C, Zorbax partition) of 0.05 nM. The substance “CTGCCTCGACAGCATGTATGCACATCTAGAGGCTACCCAGTGAATGAGGA [5169-4_3]” displayed a Kd under setting [2] of 0.029 nM. GACAGCATGTATGCACATCT [5169-4_59] gave a Kd (C3 spacer at 1, NapdU at 9,11,13,19,21, C3 spacer walk) of 0.053 nM. The substance CGACAGCATGTATGCACATCT [5169-4_127] registered a Kd (NapdU at P, 2'-OMe 16,17,18) of 0.01 nM. The substance TTACGTTACACGCGTTTATAGCG [4149-8_129] returned a Kd (Bn-dU, Nap-dU, Heg, 2'-OMe) of more than 10 nM. Regarding TTACGTTACCGCGTTTATAGCG [4149-8_453], the Kd (BndU, NapdU 16, 2'-OMe 3,7,12,13,18,19,21,24, PS 9,15,16,17, Heg 5, C3 11) came out at 0.002 nM. Turning to “TTACGACTACGTTACACGCGTTATAGCG [4149-8_86]”, for the setting “Bn-dU, C3 at 23”, the Kd was more than 10 nM.

“CTTACGACTACGTTACACGCGTTTATAGCG [4149-8_30]” registered a Kd under setting [1] of 0.07 nM. TTACGTTACACGCGTTTATAGCG [4149-8_306] gave a Kd (Bn-dU, 2'-OMe Bn-U2, Heg5, 2'-OMe A3, A11, A21, G24) of more than 10 nM.

With GACAGCATGTATGCACATCTAG [5169-4_28], the Kd (NapdU at P) came out at 0.048 nM. In turn, “CGACAGCATGTATGCACATCTAGAGGCTACCCAGTGAA [5169-4_12]” came in with a Kd (NapdU at P) of 0.064 nM.

The substance TTACGTTACACGCGTTTATAGCG [4149-8_253] yielded a Kd (Trp, Ib, NE, Th, Pe, MBn dU, Heg, 2'-OMe) of more than 10 nM. In the case of CGACAGCATGTATGCACATCT [5169-4_131], the Kd (NapdU at P, 2'-OMe 4,5,6) came out at 0.64 nM. TTACGTTACACGCGTTTATAGCG [4149-8_134] gave a Kd (Bn-dU) of more than 10 nM. Turning to TTACGTTACACGCGTTTATAGCG [4149-8_278], the Kd (Bn-dU, Tyr-dU1, FBn-dU7, Ib-dU8, 2Nap-dU16, Pe-dU17, Th-dU18, Heg5, 2'-OMe A3, A11, A21, G24) is more than 10 nM. In the case of “CTGCCTCGACAGCATGTATGCACATCTAGAGGCTACCCAGTGAATGA [5169-4_7]”, for the setting “NapdU at P”, the Kd turned out to be 0.014 nM. In turn, “ATCTCTTACGACTACGTTACACGCGTTTATAGCGTCAA [4149-8_9]” returned a Kd under setting [1] of 0.03 nM. Substance “TTACGACTACGTTACACGCGTTTATACG [4149-8_90]” had a Kd (Bn-dU, C3 at 27) of more than 10 nM. CGACAGCATGTATGCACATCT [5169-4_33]: for the setting “NapdU at P, 2'-OMe 1”, the Kd worked out at 0.027 nM.

For the substance TTACGTTACACGCGTTTATAGCG [4149-8_277], the Kd (Bn-dU, Tyr-dU1, Ib-dU8, Pe-dU17, Th-dU18, Heg5, 2'-OMe A3, A11, A21, G24) was more than 10 nM. The substance “TTACGACTACGTACACGCGTTTATAGCG [4149-8_75]” returned a Kd (Bn-dU, C3 at 12) of more than 10 nM. Take CGACAGCATGTATGCACATCTA [5169-4_25]: under “NapdU at P”, the Kd was determined as 0.02 nM. With CGACAGCATGTATGCAATCT [5169-4_75], the Kd (NapdU at P, C3 spacer at 17) worked out at 0.14 nM. Consider TTACGTTACCGCGTTTATAGCG [4149-8_421], for which, where the note is “as 4149-8_379, 2'-OMe 13”, the Kd was 0.019 nM. As to TTACGTTACCGCGTTTATAGCG [4149-8_419], the Kd (as 4149-8_379, 2'-OMe 15, NapdU 16) was found to be 1.3 nM. In the case of TTACGTTACACGCGTTTATAGCG [4149-8_180], the Kd (Bn-dU, Trp-dU17, Heg5, 2'-OMe A3, A11, A21, G24) was more than 10 nM. Under “as 4149-8_379, BndU 2, NapdU 16, PS 9,15”, TTACGTTACCGCGTTTATAGCG [4149-8_437] showed a Kd of 0.0074 nM. As to “CTTACGACTACGTTACACGCGTTTATAGCGTCAACCCGAGTGAACA [4149-8_12]”, the equilibrium dissociation constant (Kd) under setting [1] was 0.04 nM. CGACAGCATGTATGCACATCT [5169-4_110]: the Kd (NapdU at P, 2'-OMe 1,14,16) worked out at 0.005 nM. Take CGACAGCATGTATGCACATT [5169-4_78]: the Kd (NapdU at P, C3 spacer at 20) turned out to be 0.28 nM.

Under “Bn-dU, 2'-OMe Bn-U16, Heg5, 2'-OMe A3, A11, A21, G24”, TTACGTTACACGCGTTTATAGCG [4149-8_309] came in with a Kd of more than 10 nM. For the substance “CTCTTACGACTACGTTACACGCGTTTATAGCGTC [4149-8_27]”, under setting [1], the Kd is 0.09 nM. CGACAGCATGTATGCACATCT [5169-4_115]: for the setting “NapdU at P, 2'-OMe 4,7,21”, the Kd is 0.024 nM. The substance CGACAGCATGTATGCACATCT [5169-4_152] returned a Kd (as 5169-4_146, PS 5, 3' inverted dT) of 0.015 nM. For the substance “CTTACGACTACGTTACACGCGTTTATAGC [4149-8_31]”, the Kd under setting [1] came out at 0.3 nM. For the substance CGACAGCATGTATGCACATCT [5169-4_36], under “NapdU at P, 2'-OMe 15”, the Kd is 0.028 nM.

On to CGACAGCATGTATGCACATCT [5169-4_177], for which, under “as 5169-4_146, PS 20, 3' inverted dT”, the Kd was 0.0072 nM.
